Measured values: US20220177587A1, “METHODS AND USES OF VARIANT CD80 FUSION PROTEINS AND RELATED CONSTRUCTS” (Alpine Immune Sciences, Inc., priority 2018, published 2022)
Numbering of substitutions follows the chain as printed. Names may count otherwise.

B1: K34E/T41A/L72V: variant CD80 IgV-Fc, IgV SEQ ID NO:174 (protein)
chain: VIHVTKEVKEVATLSCGHNVSVEELAQTRIYWQEEKKMVLAMMSGDMNIWPEYKNRTIFDITNNLSIVILAVRPSDEGTYECVVLKYEKDAFKREHLAEVTLSVKAD
B2: E35D/I67L/A71D: variant CD80 IgV-Fc, IgV SEQ ID NO:195 (protein)
chain: B1 chain with E34K, E35D, A41T, I67L, A71D, V72L
B3: E35D/I57I/L70Q/A71D: variant CD80 IgV-Fc, IgV SEQ ID NO:185 (protein)
chain: B1 chain with E34K, E35D, A41T, T57I, L70Q, A71D, V72L
B4: V20I/M47V/I57I/V84I: variant CD80 IgV-Fc, IgV SEQ ID NO:190 (protein)
chain: B1 chain with V20I, E34K, A41T, M47V, T57I, V72L, V84I
B5: V20I/M47V/A71D: variant CD80 IgV-Fc, IgV SEQ ID NO:191 (protein)
chain: B1 chain with V20I, E34K, A41T, M47V, A71D, V72L
B6: E35D/A71D/L72V: variant CD80 IgV-Fc, IgV SEQ ID NO:200 (protein)
chain: B1 chain with E34K, E35D, A41T, A71D
B7: M42I/I61V/A71D: variant CD80 IgV-Fc, IgV SEQ ID NO:187 (protein)
chain: B1 chain with E34K, A41T, M42I, I61V, A71D, V72L
B8: Q27H/E35G/A71D/L72P/T791: variant CD80 IgV-Fc, IgV SEQ ID NO:196 (protein)
chain: B1 chain with Q27H, E34K, E35G, A41T, A71D, V72P, T79I
B9: A26P/E35D/M43I/L85Q/E88D: variant CD80 IgV-Fc, IgV SEQ ID NO:202 (protein)
chain: B1 chain with A26P, E34K, E35D, A41T, M43I, V72L, L85Q, E88D
B10: T13R/M42V/M47I/A71D: variant CD80 IgV-Fc, IgV SEQ ID NO:197 (protein)
chain: B1 chain with T13R, E34K, A41T, M42V, M47I, A71D, V72L
B11: H18Y/M47I/T57I/A71G: variant CD80 IgV-Fc, IgV SEQ ID NO:189 (protein)
chain: B1 chain with H18Y, E34K, A41T, M47I, T57I, A71G, V72L
B12: E35D/T57A/A71D/L85Q: variant CD80 IgV-Fc, IgV SEQ ID NO:206 (protein)
chain: B1 chain with E34K, E35D, A41T, T57A, A71D, V72L, L85Q
B13: M47V/N48H: variant CD80 IgV-Fc, IgV SEQ ID NO:180 (protein)
chain: B1 chain with E34K, A41T, M47V, N48H, V72L
B14: K36R/G78A: variant CD80 IgV-Fc, IgV SEQ ID NO:178 (protein)
chain: B1 chain with E34K, K36R, A41T, V72L, G78A
B15: S44P/A71D: variant CD80 IgV-Fc, IgV SEQ ID NO:182 (protein)
chain: B1 chain with E34K, A41T, S44P, A71D, V72L
B16: E23D/M42V/M43I/I58V/L70R: variant CD80 IgV-Fc, IgV SEQ ID NO:209 (protein)
chain: B1 chain with E23D, E34K, A41T, M42V, M43I, I58V, L70R, V72L
B17: M47I/E88D: variant CD80 IgV-Fc, IgV SEQ ID NO:186 (protein)
chain: B1 chain with E34K, A41T, M47I, V72L, E88D
B18: T41S/A71D/V84A: variant CD80 IgV-Fc, IgV SEQ ID NO:175 (protein)
chain: B1 chain with E34K, A41S, A71D, V72L, V84A
B19: Q27H/M43I/A71D/R73S: variant CD80 IgV-Fc, IgV SEQ ID NO:183 (protein)
chain: B1 chain with Q27H, E34K, A41T, M43I, A71D, V72L, R73S
B20: Q33E/T41A: variant CD80 IgV-Fc, IgV SEQ ID NO:179 (protein)
chain: B1 chain with Q33E, E34K, V72L
B21: M47L/V68A: variant CD80 IgV-Fc, IgV SEQ ID NO:181 (protein)
chain: B1 chain with E34K, A41T, M47L, V68A, V72L
B22: Q27L/E35D/M47I/T57I/L70Q/E88D: variant CD80 IgV-Fc, IgV SEQ ID NO:204 (protein)
chain: B1 chain with Q27L, E34K, E35D, A41T, M47I, T57I, L70Q, V72L, E88D
B23: M47V/I69F/A71D/V831: variant CD80 IgV-Fc, IgV SEQ ID NO:205 (protein)
chain: B1 chain with E34K, A41T, M47V, I69F, A71D, V72L, V83I
B24: V22L/E35G/A71D/L72P: variant CD80 IgV-Fc, IgV SEQ ID NO:193 (protein)
chain: B1 chain with V22L, E34K, E35G, A41T, A71D, V72P
B25: E35D/A71D: variant CD80 IgV-Fc, listed twice: IgV SEQ ID NO:176 (Table E1) and 194 (Table E2) (protein)
chain: B1 chain with E34K, E35D, A41T, A71D, V72L

What follows are molecules tested against CD28 (Homo sapiens, UniProt P10747) (assay: Jurkat/IL2 reporter assay: blockade of CD28 costimulation (plate-bound anti-CD3/CD86-Fc)). Details: Table E5; protein diluted to 40 nM before mixing with cells; 5 hours.
Type: cell-based
Design: host or cells: Jurkat cells expressing an IL-2-luciferase reporter
Procedure: The day before the assay, the assay plate was prepared. […] The plate was incubated overnight at 4° C. to allow the antibody and CD86-Fc protein to adhere to the surface of the plate. The next day, the wells of the assay plate were washed twice with 150 μL PBS prior to the assay.
Jurkat effector cells expressing IL-2-luciferase reporter were counted and resuspended in assay buffer to a concentration of 2×10^6 cells/mL. 60 μL of the Jurkat cell suspension were then added to the wells containing the CD80-Fc fusion molecules or controls. The cells and CD80 proteins were incubated at room temperature for 15 minutes and then 100 μL of the cell/CD80 protein mixture were transferred/well of the prepared anti-CD3/CD86-Fc assay plate.
The assay plate was briefly spun down (10 seconds at 1200 RPM) and incubated at 37° C. for 5 hours. After the 5 hour incubation, the plate was removed and equilibrated to room temperature for 15 minutes. 100 μL of Bio-Glo (Promega) were added/well of the assay plate, which was then placed on an orbital shaker for 10 minutes. Luminescence was measured with a 1 second per well integration time using a BioTek Cytation 3 luminometer.

Row | Average Relative Luminescence Units | Molecule
1 | 4225 Relative Luminescence Units | B1
2 | 1223 Relative Luminescence Units | B2
3 | 280 Relative Luminescence Units | B3
4 | 1870 Relative Luminescence Units | B4
5 | 360 Relative Luminescence Units | B5
6 | 1152 Relative Luminescence Units | B6
7 | 2549 Relative Luminescence Units | B7
8 | 2000 Relative Luminescence Units | B8
9 | 4078 Relative Luminescence Units | B9
10 | 759 Relative Luminescence Units | B10
11 | 924 Relative Luminescence Units | B11
12 | 3213 Relative Luminescence Units | B12
13 | 2656 Relative Luminescence Units | B13
14 | 2597 Relative Luminescence Units | B14
15 | 2848 Relative Luminescence Units | B15
16 | 4460 Relative Luminescence Units | B16
17 | 2178 Relative Luminescence Units | B17
18 | 2685 Relative Luminescence Units | B18
19 | 1891 Relative Luminescence Units | B19
20 | 4220 Relative Luminescence Units | B20
21 | 5445 Relative Luminescence Units | B21
22 | 1180 Relative Luminescence Units | B22
23 | 290 Relative Luminescence Units | B23
24 | 2334 Relative Luminescence Units | B24

Same assay, conditions: Table E5; protein diluted to 40 nM before mixing with cells; 5 hours; SEQ ID NO 176

Row | Average Relative Luminescence Units | Molecule
25 | 1461 Relative Luminescence Units | B25
